B1: LINE1-full (parent)
chain: UACGUAGGUGGUUUUCCCCUGAUAGUGCUAAGGGGGCCUGGAAGUUUGGACUGGGCAGAGCUCAACACAGCGUGGCAAAGUGGCUGUGGCUAGACUGCCUCUCUGGAUUCCUCGUCACUCAGCAGGGCAUCUCUGAGAGAAAUGCC

Variants of B1 are the subject of this series. Nature of the series: self-cleavage, relative activity (ratio to wild type); higher = more cleavage; in vitro, sequencing; the parent is a self-cleaving ribozyme.
Regarding C90U U134G, the self-cleavage came to 0.04.

For the variant U91C A138G, the self-cleavage was 1.98.

Regarding U91C A121G, the self-cleavage amounted to 1.29.

With U91C A92U, the self-cleavage is 0.23.

U91C A92G: the self-cleavage turned out to be 0.1.

For the variant G86A U102C, the self-cleavage came to 0.18.

Regarding U87A C113A, the self-cleavage worked out at 0.06.

Turning to U85C C95U, the self-cleavage was 0.06.

As to U91C C110G, the self-cleavage amounted to 0.58.

As for G88A A136G, the self-cleavage came to 0.07.

As to G89U C123G, the self-cleavage was 0.07.

For the variant G89A A117U, the self-cleavage is 0.04.

C90G A142G: the self-cleavage was found to be 0.05.

Turning to U87A C110A, the self-cleavage turned out to be 0.06.

U87G U115A: the self-cleavage was determined as 0.24.

As to U85G, the self-cleavage was 0.13.

Consider U85C, for which the self-cleavage was 0.18.

Consider U91C G144A, for which the self-cleavage came out at 0.47.

G89U U134G: the self-cleavage was 0.04.

For C90G A129G, the self-cleavage was determined as 0.04.

For the variant U87C G106U, the self-cleavage amounted to 0.26.

Regarding U87C G106A, the self-cleavage worked out at 0.21.

Turning to U85A G114A, the self-cleavage turned out to be 0.08.

Take U85C G122A: the self-cleavage stood at 0.14.

As for G89A U102C, the self-cleavage amounted to 0.05.

On to G89A C133U, for which the self-cleavage stood at 0.03.

With U91A A142G, the self-cleavage worked out at 0.63.

As for U85G A94G, the self-cleavage turned out to be 0.36.

For the variant U85G U109C, the self-cleavage came out at 0.

With G88A U104C, the self-cleavage was 0.15.

As for U87A C131U, the self-cleavage was found to be 0.08.

Turning to G86A U91C, the self-cleavage was determined as 0.07.

Regarding U91C A140C, the self-cleavage was 0.38.

As to U91C U108C, the self-cleavage was 0.62.

Regarding G89A A92U, the self-cleavage was 0.07.

With U91C G122A, the self-cleavage stood at 0.29.

C90U U108G: the self-cleavage stood at 0.09.

Regarding G88C A129G, the self-cleavage came out at 0.12.

On to G88A U100A, for which the self-cleavage came out at 0.07.

On to U85A U104A, for which the self-cleavage turned out to be 0.03.

For U85A U104G, the self-cleavage stood at 0.02.

In the case of U85A U104C, the self-cleavage was 0.13.

Turning to G86U U100C, the self-cleavage turned out to be 0.16.

Consider G89C U119A, for which the self-cleavage came out at 0.02.

Turning to U87C G122U, the self-cleavage was determined as 0.3.

Turning to U91C C101U, the self-cleavage came out at 0.69.

In the case of U85C U87A, the self-cleavage was 0.07.

As to U85C U87C, the self-cleavage was found to be 0.04.

As to U87A G97U, the self-cleavage came out at 0.08.

As for C90U U100A, the self-cleavage amounted to 0.04.

With G89U G125A, the self-cleavage stood at 0.05.

U91C C146U: the self-cleavage is 0.53.

On to U87G U104A, for which the self-cleavage was found to be 0.2.

For the variant U85C G105U, the self-cleavage amounted to 0.14.

As for U87G A138U, the self-cleavage stood at 0.48.

With U87G A138G, the self-cleavage turned out to be 0.14.

Regarding U91C C120A, the self-cleavage is 0.74.

Consider U87A G114A, for which the self-cleavage is 0.05.

With C90U A138G, the self-cleavage was found to be 0.04.

Consider U85G U134C, for which the self-cleavage was determined as 0.16.

For U87C U109C, the self-cleavage worked out at 0.27.

As for U87C U109A, the self-cleavage was determined as 0.15.

On to C90A A117C, for which the self-cleavage came to 0.05.

Consider G89C A136G, for which the self-cleavage was 0.06.

Take C90U U119C: the self-cleavage came to 0.03.

Turning to U85C C118U, the self-cleavage came to 0.1.

As to U87C C90U, the self-cleavage was determined as 0.07.

Take G89C: the self-cleavage came to 0.04.

In the case of G89A, the self-cleavage was determined as 0.04.

Consider G89U, for which the self-cleavage stood at 0.01.

As for U87G A124C, the self-cleavage turned out to be 0.32.

For U87C U143C, the self-cleavage was 0.21.

As for U87C U143A, the self-cleavage stood at 0.22.

U87A A138G: the self-cleavage was found to be 0.07.

Turning to U87C C110A, the self-cleavage came out at 0.06.

On to U91A G126A, for which the self-cleavage turned out to be 0.43.

G86A U134C: the self-cleavage was 0.08.

For the variant U85C C123G, the self-cleavage was 0.15.

Regarding G88A A140U, the self-cleavage turned out to be 0.07.

Consider G88A G122A, for which the self-cleavage was determined as 0.07.

For U87G A129G, the self-cleavage amounted to 0.27.

For U87A G126U, the self-cleavage is 0.08.

For U87A G127U, the self-cleavage was 0.06.

Consider U87A G127A, for which the self-cleavage came to 0.04.

Regarding U91C G137A, the self-cleavage was found to be 1.14.

As to U91A A140G, the self-cleavage was found to be 0.45.

G88A U134A: the self-cleavage was 0.06.

As to G88A U134C, the self-cleavage came out at 0.08.

U87C A117G: the self-cleavage amounted to 0.41.

For U87C A117C, the self-cleavage stood at 0.

In the case of U87C A117U, the self-cleavage came out at 0.19.

Regarding C90U U115C, the self-cleavage worked out at 0.06.

On to G86A U112A, for which the self-cleavage stood at 0.08.

For U87A U100C, the self-cleavage is 0.09.

U85C A142G: the self-cleavage came out at 0.17.

Regarding U85C A142U, the self-cleavage stood at 0.21.

C90U U112A: the self-cleavage came out at 0.04.

C90U U112C: the self-cleavage is 0.03.

U91A A136G: the self-cleavage was 0.36.

As to U91A A136U, the self-cleavage came out at 0.54.

On to G89A U104A, for which the self-cleavage was determined as 0.01.

Turning to U85C U132G, the self-cleavage is 0.28.

Turning to U85C U132C, the self-cleavage is 0.24.

U87C A141U: the self-cleavage is 0.2.

On to U91C A129U, for which the self-cleavage was found to be 0.82.

With U91A U112C, the self-cleavage was determined as 0.58.

With U87C A138G, the self-cleavage turned out to be 0.28.

As to G89A A121G, the self-cleavage turned out to be 0.09.

Turning to U91C A117C, the self-cleavage came to 1.24.

Turning to C90G U102C, the self-cleavage amounted to 0.01.

Consider U91C U96A, for which the self-cleavage was 0.08.

Take U87A A121G: the self-cleavage came out at 0.1.

For U87A A121U, the self-cleavage was found to be 0.09.

As to U91C U100C, the self-cleavage came out at 0.48.

Consider C90U, for which the self-cleavage was determined as 0.03.

Consider C90A, for which the self-cleavage was 0.04.

C90G: the self-cleavage came to 0.03.

U87C A129G: the self-cleavage stood at 0.07.

Turning to U87C A129U, the self-cleavage worked out at 0.15.

On to U85C C99A, for which the self-cleavage was determined as 0.16.

As for U91C C98A, the self-cleavage is 0.06.

For G89C A138G, the self-cleavage is 0.07.

For the variant G89A U91C, the self-cleavage stood at 0.05.

As to U91C A142G, the self-cleavage was 0.73.

For the variant U87A G88C, the self-cleavage was 0.08.

Turning to U87A U119C, the self-cleavage turned out to be 0.07.

As for U87A U119A, the self-cleavage came to 0.08.

For G86A A124G, the self-cleavage was found to be 0.02.

Regarding C90A U96C, the self-cleavage was determined as 0.04.

As to U85A C120U, the self-cleavage stood at 0.2.

As to U91C A124C, the self-cleavage turned out to be 0.69.

As for U87A A129U, the self-cleavage was found to be 0.08.

Consider U87G A140G, for which the self-cleavage stood at 0.19.

For G86U, the self-cleavage came out at 0.1.

For G86C, the self-cleavage is 0.06.

G86A: the self-cleavage amounted to 0.08.

Take G89C G122C: the self-cleavage amounted to 0.02.

With U85G C128U, the self-cleavage was 0.39.

For U85C U143A, the self-cleavage was determined as 0.19.

As for U85C U143C, the self-cleavage was 0.1.

As to C90U A107G, the self-cleavage was determined as 0.03.

On to U85A U134G, for which the self-cleavage was found to be 0.12.

As for U85C U96C, the self-cleavage was 0.2.

With U85C U96A, the self-cleavage worked out at 0.07.

As to U91A U134A, the self-cleavage amounted to 0.18.

On to U91A U134C, for which the self-cleavage came to 0.45.

Turning to U91C A136G, the self-cleavage turned out to be 0.8.

For the variant U87C U119G, the self-cleavage is 0.

Regarding U87C U119C, the self-cleavage is 0.24.

Turning to U87C U119A, the self-cleavage was determined as 0.19.

On to G88C G125C, for which the self-cleavage was found to be 0.06.

Turning to G89U A142G, the self-cleavage was found to be 0.03.

Consider U87A A124U, for which the self-cleavage came out at 0.08.

On to G89A U109G, for which the self-cleavage came out at 0.04.

As for U85A U96A, the self-cleavage amounted to 0.12.

Take U85A U96C: the self-cleavage is 0.09.

For U91C C99U, the self-cleavage is 0.12.

For G88A A107C, the self-cleavage is 0.03.

As to U91C U102C, the self-cleavage turned out to be 0.4.

For G86A U119A, the self-cleavage was 0.16.

Consider U91C G135A, for which the self-cleavage came out at 0.73.

With G86A U109G, the self-cleavage came to 0.07.

In the case of U87G A117G, the self-cleavage worked out at 0.

For the variant U87A A140U, the self-cleavage came to 0.11.

Consider U85C G139A, for which the self-cleavage came out at 0.2.

Consider U91A U108C, for which the self-cleavage is 0.73.

U91C U119A: the self-cleavage stood at 0.48.

The values above are taken from the RNAGym collection of RNA variant scans (doi:10.7554/elife.90254).
